Test results: the DeepSol protein solubility set

Assay: soluble on expression in E. coli; label from the status in PepcDB or PDB records

Sequence	soluble on expression in E. coli
MSLSEYQDLSQQIELIATAEESEQTHLLGEMVENGLDEGSIALILEAFPVEQRVRLWRSLPLEMHIDVLTEMRAEVRISVINALSEIELKLTLAKLDNLSLIEWEDSLPDDIISEALSLINRDELELYDQANEFADDEIGHWADRKVYTLPFSISVRRAKVLLDKYHYDSPQYIYLINKAKKFRGLVSFSDVLQAEETTQLKNLRMEELVTLNAKQTLSDAVDALEHTTLPIVPVLSDDETLIGEIDWHFALSVQREMYEARLMAGTGMDEGDDLFAPVIKSEGHHHHHH	soluble
MSLSGSITVPNYSDTNRVPGLYFALDNSKANTASVTRRVLILGQTIAGSGAPNVATLSAGYSDAVAKYGAASQCARMVSAYRAIDAQGEVWVLPLADDTSAQAATGKVTVSGTATSAGTLPLYVGDQLISVAVDTGDTAATVAANIATATAAVSGLPAGASAAEGVVTFTALNKGQSGNDILLGVALLGTAGGQAVPDGLTIALTQFSGGTADPTTLATVLALQGERVYDLIIHPYTDSGSLTALKIWLNDTAGRWSPMLQLYGHAITAYRGTYGAATSLGLAQNDQHATIMPIGDSPSDPLTWAAQIGARTAMSMRSNPALPITAVSLTVMPPTDVGRYSSEQRNSLLYDGLSTFTVDDSGTVNIERLVTTYQTNASGLPDNSYLDIETMLTAEICMQDMRSYLAGQYGGCILVADGTKISAGAKATTAKLIGKACASRYRWQTTQLWVQNADNFAANIVAENAGNGVVKLLMPYDFANQLRIIAGSVQFVKSEGHHHHHH	soluble
MSLSIPADIASLISDKYKSAFDNGNLKFIQTETTKTKDPKTSMPYLISHMPSLIEKPERGQTPEGEDPLGKPEEELTVIPEFGGADNKAYKLLLNKFPVIPGHTLLVTNEYQHQTDALTPTDLLTAYKLLCALDNEESDKRHMVFYNSGPASGSSLDHKHLQILQMPEKFVTFQDRLCNGKEHFLPTFNTEPLQDAKVSFAHFVLPMPESEETVDEDLLAMCYISILQRALTFFQDWLNENPELKKSYNLMLTKEWICVVPRSKAFSDEMKIGFNSTGYCGMILTKNDEVFSKITEKPELINDILLECGFPNTSGQKPNEYNYEGHHHHHH	soluble
MSLSIYSVGRWICRSYFRLFFKVEVIGASRIPDEGGLLLCCNHFSNYDPPFVGSFFPRKVRFMAKEELFRFKPLQSLMMAVGAFPVRRGAGDKQALKVGLKLLKEGETLGIFPEGTRSKDGQIGKGLSGVGFFALRSDATVVPCAIVGKYRFFRKVRFVIGEPVPMEELKERKASAEEATEVIMKAIRKLHEQNQMSEGHHHHHH	soluble
MSLSKEKEVLLNEEIRADEIRCVGDDGKVYGIISSDEALEIANRLGLDLVMIAADAKPPVCKIMDYGKFRYQQEKKQKEAKKKQKVIDIKEIKLSVKIAQNDINYKVKHALEFLEQGKHVRFRVFLKGREMATPEAGVALLEKIWTMIENEANRDKEPNFEGRYVNMLVTPKKAEGHHHHHH	soluble
MSLSKHSHYKDKKKFYKKVEQFKEFQERISVHFQNEKLLYQAFTHSSYVNEHRKKPYEDNERLEFLGDAVLELTISRFLFAKYPAMSEGDLTKLRAAIVCEPSLVSLAHELSFGDLVLLGKGEEMTGGRKRPALLADVFEAFIGALYLDQGLEPVESFLKVYVFPKINDGAFSHVMDFKSQLQEYVQRDGKGSLEYKISNEKGPAHNREFEAIVSLKGEPLGVGNGRSKKEAEQHAAQEALAKLQKHHTKQEGGSHHHHHH	soluble
MSLSKLPLLPTTVIGSYPRPKWLRESIRLHKAGKMSNEDLQEAFNDAVIAVFQDHYKAGVDVPTDGEVRRDEMVEFFAERIKGFKFYGPVRVWGTAYYRKPSVVSKIEYREPMLVDEFTFAKSVSYTDNLKITITGPYTIAEWSYNEYYRNKKDLVFDLAKAINQEIKNLVEAGAKIIQIDEPALHTRKEDVSWGVEAVNEAVKGVNAKLVMHICYGDYSFVAPYFNEIKVDQINFALKIYNYKPLELLKKYGFDKELGAGVVDVHNRKVETSEEVANDIRKILEYFPPEKVWINPDCGLKLLSRKIAYQKLVSMVEGTKVVREELKRKGYSVDEGHHHHHH	not soluble
MSLSKNKYLFKYLIVDRKKLDPSYTYKYDNIQWNHKIIAIGDIHGDVESLKLILRHSNLIDENDEWIAEDVMLVQVGDILDRGVFGTYIYDYLLKLQKDAIKKNSKVILIMGNHEQLNLCGAFHYVNESEVMLFFQNNRNNRLFSFTNKNGYYFKKLIRLPVIVKINNIIFTHGGISKHMSEYDINTINLKTRLQIENKCKMFQFEKYNYLSKEGVLWNNEISHQVKLQPKKTCKHLRNILKKYNAKGLVVGHTRQKSHEIQTYCNNSFFLIDTGMSLFMNNGQPYPNYLQIEKGKFKTVHLIVQEYNRKEGHHHHHH	not soluble
MSLSKPLFIFEMANNHMGNVEHGVALIRAIRESCQGFDFDFGFKLQYRNLDTFIHSSFKGRDDVKYVKRFEETRLQPEQMQKLVAEMKANGFKAICTPFDEESVDLIEAHGIEIIKIASCSFTDWPLLERIARSDKPVVASTAGARREDIDKVVSFMLHRGKDLTIMHCVAEYPTPDDHLHLARIKTLRQQYAGVRIGYSTHEDPDLMEPIMLAVAQGATVFEKHVGLPTDQYGINNYSANPEQVRRWLAAAARALAMLGDGEDDAVSETEQASLRSLRRGVFATRPVAAGEALTADNVSFAFPPVEGQLTANEWSKYVRYTAKTPIAADAPVMAADLEPVNEGHHHHHH	soluble
MSLSLDESNTALAEEFDNWDLEFKLWELVDRLFRFRALFSNKAKTELLREYDFSSMGIKQENFLRKNPAIRELSIIILWLQSHTPSLVGDETESYQTKWKNTAMAVANSDFDVLASRATDADLIDKLDIDAPLRSNRSIHPADESNDSKVFAQIYKLLLQDRVQDAIDIANNTGNYALALILVGATQEYFDPVLDKEGHHHHHH	soluble
MSLSLREVSQLLCQLKVLDQKITKVFEEQVGLSLTRYELLMILKERQPCLQTEIQEHLKIDSGAVTRHLKILEEKQYVTRQRNPENNREVLVHLTEKAQQELQQCTAKQQTVTEIIPSTFTKDDCRQLKELLTKLDQSITTKEV	not soluble
MSLSNFYKLLKEKFPRKEDIVTEMINLEAICQLPKGTEYFISDLHGEYDAVDYLLRTGAGSIRAKLLDCFDWQKIVAVDLDDFCILLYYPKEKLAFDKMNLSASAYKTKLWEMIPLQIQVLKYFSSKYTKSKVRKQLSGKFAYIIEELLAEIDRNPEKKSYFDTIIEKLFELDQVEDLIIVLSQTIQVLIIDHLHVVGDIYDRGRYPDRILNRLMAFPNLDIQWGNHDVTWMGAASGSYLCMVNVIRIAARYNNITLIEDRYGINLRRLVDYSRRYYEPLPSFVPILDGEEMTHPDELDLLNMIQQATAILQFKLEAQLIDRRPEFQMHNRQLINQVNYKDLSISIKEVVHQLKDFNSRCIDSKNPSRLTSEEEELLQQLMIAFQTSESLKKHIDFLFEKGSMYLTYNDNLLFHGCIPMHSNGDFKSFKIAGKTYGGRDLLDLFESQIRLAYARPEKHDDLATDIIWYLWCGENSSLFGKNAMTTFERYYVSDKVTHQERKNPYFKLRDKDDICTALLQEFDLPKFGHIVNGHTPVKEKNGEQPIKANGKMLVIDGGFAKGYQKNTGLAGYTLIYNSYGIQLISHLPFTSIEEVLSGTNYIIDTKRLVEEAKDRILVKDTTIGQKLTKEIKDLDHLYRHFQEYDEGHHHHHH	soluble
MSLSQHIRKLDSDVSERLKSQACTVSLASAVREIVQNSVDAHATTIDVMIDLPNLSFAVYDDGIGLTRSDLNILATQNYTSKIRKMNDLVTMKTYGYRGDALYSISNVSNLFVCSKKKDYNSAWMRKFPSKSVMLSENTILPIDPFWKICPWSRTKSGTVVIVEDMLYNLPVRRRILKEEPPFKTFNTIKADMLQILVMHPMISLNVQYTDKLRINTEVLFRSKNITEGLTKHQQMSQVLRNVFGAIIPPDMLKKVSLKFNEYQIEGIISKMPVGLKDLQFIYINGRRYADSAFQGYVDSLFQAQDFGEKGMSLLKTKSVGKPYRSHPVFILDVRCPQTIDDLLQDPAKKIVKPSHIRTIEPLIVKTIRSFLTFQGYLTEGHHHHHH	not soluble
MSLSQNSESGNYRKYTSRNPLMGIVVSGFMKDLSETIAPLEEVGSIIDIGCGEGFIINCLNRKDITGVDVSKKALNIAKQKNPGCNFCTGSIYDLSFKKSSFDLVIATEVLEHLENPERALREIKRISKKYCIFSVPNEPYFRTMNFLRGKNLTRLGNDIEHLQNWSTKEFVKLVGRHFNVVEVKRPFPWTMVLCEKEGHHHHHH	not soluble
